Data from article PMC10477244.
Substitutions are numbered along the chain they refer to.

B1: aptamer T (Apt@T2) (ssDNA)
DNA: GGTATTGAGGGTCGCATCGTAATAGCGCATGTTGTGAGGCAGGCGCGAATCAGCTCGTGAGATGGCTCTAACTCTCCTCT
B2: aptamer U (Apt@U2) (ssDNA)
DNA: GGTATTGAGGGTCGCATCGTAATAGCGCATGTTGTGAGGCGGCGGAGTCATGTCGTGGGATGGCTCTAACTCTCCTCT
B3: aptamer R (Apt@R2) (ssDNA)
DNA: GGTATTGAGGGTCGCATCGTTACTGGACCAAACAGCACAAAGGACGCCCATAAACCCGGATGGCTCTAACTCTCCTCT
B4: aptamer S (Apt@S2) (ssDNA)
DNA: GGTATTGAGGGTCGCATCGAAACAGGGCGTGATACGACGCGACGGCGTACTGTGGTGGGATGGCTCTAACTCTCCTCT
B5: aptamer W (Apt@W2) (ssDNA)
DNA: B4 DNA with A21C, A24C, C28A, A37T, C43G, G44C, G45A, G55T

Key:
[1] = target: T1, SARS-CoV-2 spike RBD (BEI NR-53800) (SARS-CoV-2 Wuhan-Hu-1, UniProt P0DTC2 319-541); experiment: ELISA-type bead assay (SA-HRP/TMB); 0.3 uM aptamer
[2] = target: T1, SARS-CoV-2 spike RBD (BEI NR-53800); experiment: ELISA-type bead assay (SA-HRP/TMB)
[3] = target: T1, SARS-CoV-2 spike RBD (BEI NR-53800); experiment: fluorescence binding, carbon-dot aptamer on Ni-NTA@RBD

| Binder | binding result [1] | binding result [2] | other results |
| --- | --- | --- | --- |
| B1 | binds | – | – |
| B2 | – | binds | – |
| B3 | – | – | Kd [3]: 125 nM |
| B4 | binds | – | – |
| B5 | – | binds | – |
